Data reported in patent US20190218277A1 (Chugai, published 2019).

T1: human FcγRIIa (167R) (human, UniProt P12318 36-217)
T1 construct: also called human FcγR2a allelic variant 167R
T1 chain: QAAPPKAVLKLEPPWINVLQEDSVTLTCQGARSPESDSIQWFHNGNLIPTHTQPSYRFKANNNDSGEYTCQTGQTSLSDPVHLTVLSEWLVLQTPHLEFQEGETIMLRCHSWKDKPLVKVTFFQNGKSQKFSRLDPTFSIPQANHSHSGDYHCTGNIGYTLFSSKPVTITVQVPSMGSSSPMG

T2: human FcγRIIb (human, UniProt P31994 43-217)
T2 construct: also called human FcγR2b
T2 sequence: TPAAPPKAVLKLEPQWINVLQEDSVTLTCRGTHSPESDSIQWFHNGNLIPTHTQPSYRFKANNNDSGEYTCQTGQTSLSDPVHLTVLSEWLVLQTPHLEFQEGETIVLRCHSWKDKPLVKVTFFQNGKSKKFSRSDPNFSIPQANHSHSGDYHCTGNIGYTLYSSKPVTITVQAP

T3: mouse FcγRIV (mouse, UniProt A0A0B4J1G0 21-203)
T3 construct: also called mFcγRIV; mouse FcγR4
T3 sequence: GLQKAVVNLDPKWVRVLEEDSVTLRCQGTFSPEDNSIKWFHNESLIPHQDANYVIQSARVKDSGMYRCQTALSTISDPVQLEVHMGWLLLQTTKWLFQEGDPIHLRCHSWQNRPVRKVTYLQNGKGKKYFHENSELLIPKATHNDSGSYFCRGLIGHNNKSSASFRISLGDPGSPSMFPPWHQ


Key:
[1] = target: mouse C1q (from 10% mouse plasma) (mouse, UniProt P98086 23-245; P14106 26-253; Q02105 30-246); assay: ELISA: antibody coated on the plate at the concentration shown, 10% mouse plasma added, detected with biotinylated anti-mouse C1q and streptavidin-HRP, OD 405 nm
Sequence of mouse C1q (from 10% mouse plasma) (P98086 23-245 limits assumed, chain 1 of 3): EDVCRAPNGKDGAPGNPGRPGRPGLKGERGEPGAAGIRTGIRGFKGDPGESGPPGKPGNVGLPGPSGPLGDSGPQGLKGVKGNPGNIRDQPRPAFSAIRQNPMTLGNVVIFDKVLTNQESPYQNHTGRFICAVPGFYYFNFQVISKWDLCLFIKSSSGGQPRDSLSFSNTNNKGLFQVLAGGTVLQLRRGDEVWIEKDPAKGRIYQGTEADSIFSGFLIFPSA
Sequence of mouse C1q (from 10% mouse plasma) (P14106 26-253 limits assumed, chain 2 of 3): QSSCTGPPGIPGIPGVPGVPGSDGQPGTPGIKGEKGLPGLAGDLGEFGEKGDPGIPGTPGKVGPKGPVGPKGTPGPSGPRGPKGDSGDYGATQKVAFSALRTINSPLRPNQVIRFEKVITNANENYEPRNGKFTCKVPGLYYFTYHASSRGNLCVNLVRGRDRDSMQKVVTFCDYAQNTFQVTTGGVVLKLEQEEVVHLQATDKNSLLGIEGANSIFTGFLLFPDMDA
Sequence of mouse C1q (from 10% mouse plasma) (Q02105 30-246 limits assumed, chain 3 of 3): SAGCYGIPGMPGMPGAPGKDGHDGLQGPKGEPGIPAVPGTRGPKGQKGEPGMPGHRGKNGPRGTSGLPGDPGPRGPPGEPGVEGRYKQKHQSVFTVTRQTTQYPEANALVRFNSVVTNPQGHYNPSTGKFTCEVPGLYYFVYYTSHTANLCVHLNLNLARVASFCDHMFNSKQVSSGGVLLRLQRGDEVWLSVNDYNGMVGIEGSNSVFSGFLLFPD

human FcγRIIa (167R) = target: T1, human FcγRIIa (167R); assay: SPR (Biacore T200, pH 7.4, 25 °C): His-tagged FcγR captured by anti-His antibody; antibody injected at 100 nM alone (Ab alone) or as 1:1 complex with trimeric CD154 (CD154 IC); binding level / capture level [C]
human FcγRIIb = target: T2, human FcγRIIb; assay: SPR (Biacore T200, pH 7.4, 25 °C): His-tagged FcγR captured by anti-His antibody; antibody injected at 100 nM alone (Ab alone) or as 1:1 complex with trimeric CD154 (CD154 IC); binding level / capture level [D]
mouse FcγRIV = target: T3, mouse FcγRIV; assay: as above

| Binder | binding result [1] | binding result (human FcγRIIa (167R)) | binding result (human FcγRIIb) | binding result (mouse FcγRIV) |
| --- | --- | --- | --- | --- |
| Anti-CD154 antibody (SLAPH0336a/SLAPL0336a) with Fc variant LALA+ACT3 (SG1044) (antibody) heavy: EVQLVESGGGSVKPGGSLKLSCAASGFTFSDHYMYWVRQTPEKRLEWVAIISGGGSYTSYPDSMKGRFTISRDNAKNILHLQMSSLKSEDTAMYYCTRESNGKPGFAYWGQGTLVTVSAASTKGPSVFPLAPSSKSTSGGTAALGCLVKDYFPEPVTVSWNSGALTSGVHTFPAVLQSSGLYSLSSVVTVPSSSLGTQTYICNVNHKPSNTKVDKRVEPKSCDKTHTCPPCPAPEAAGGPSVFLFPPKPKDTLMISRTPEVTCVVVDVSHEDPEVKFNWYVDGVEVHNAKTKPREEQYNSTYRVVSVLTVLHQDWLNGKEYKCKVSNKALPAPIEKTISKAKGQPREPQVYTLPPSREEMTKNQVSLTCLVKGFYPSDIAVEWESNGQPENNYKTTPPVLDSDGSFFLYSKLTVDKSRWQQGNVFSCSVLHEALHAHTTRKELSLSP light: not shown | binds | no binding (tested: 100 nM) | no binding (tested: 100 nM) | no binding (tested: 100 nM) |
| Anti-CD154 antibody (SLAPH0336a/SLAPL0336a) with Fc variant LALA+ACT5 (SG1045) (antibody) heavy: EVQLVESGGGSVKPGGSLKLSCAASGFTFSDHYMYWVRQTPEKRLEWVAIISGGGSYTSYPDSMKGRFTISRDNAKNILHLQMSSLKSEDTAMYYCTRESNGKPGFAYWGQGTLVTVSAASTKGPSVFPLAPSSKSTSGGTAALGCLVKDYFPEPVTVSWNSGALTSGVHTFPAVLQSSGLYSLSSVVTVPSSSLGTQTYICNVNHKPSNTKVDKRVEPKSCDKTHTCPPCPAPEAAGGPSVFLFPPKPKDTLMISRTPEVTCVVVDVSHEDPEVKFNWYVDGVEVHNAKTKPREEQYNSTYRVVSVLTVLHQDWLNGKEYKCKVSNKALPAPIEKTISKAKGQPREPQVYTLPPSREEMTKNQVSLTCLVKGFYPSDIAVEWESNGQPENNYKTTPPVLDSDGSFFLYSKLTVDKSRWQQGNVFSCSVLHEALHAHYTRKELSLSP light: not shown | binds | no binding (tested: 100 nM) | no binding (tested: 100 nM) | no binding (tested: 100 nM) |
| Anti-CD154 antibody (SLAPH0336a/SLAPL0336a) with Fc variant LALA+ACT5+KAES (SG1106) (antibody, also called LALA+KAES+ACT5) heavy: EVQLVESGGGSVKPGGSLKLSCAASGFTFSDHYMYWVRQTPEKRLEWVAIISGGGSYTSYPDSMKGRFTISRDNAKNILHLQMSSLKSEDTAMYYCTRESNGKPGFAYWGQGTLVTVSAASTKGPSVFPLAPSSKSTSGGTAALGCLVKDYFPEPVTVSWNSGALTSGVHTFPAVLQSSGLYSLSSVVTVPSSSLGTQTYICNVNHKPSNTKVDKRVEPKSCDKTHTCPPCPAPEAAGGPSVFLFPPKPKDTLMISRTPEVTCVVVDVSHEDPEVKFNWYVDGVEVHNAKTKPREEQYNSTYRVVSVLTVLHQDWLNGKEYKCKVSNAALPAPISKTISKAKGQPREPQVYTLPPSREEMTKNQVSLTCLVKGFYPSDIAVEWESNGQPENNYKTTPPVLDSDGSFFLYSKLTVDKSRWQQGNVFSCSVLHEALHAHYTRKELSLSP light: not shown | binds | no binding (tested: 100 nM) | no binding (tested: 100 nM) | no binding (tested: 100 nM) |
| Anti-CD154 antibody (SLAPH0336a/SLAPL0336a) with Fc variant LALA+ACT3+KAES (SG1105) (antibody, also called LALA+KAES+ACT3) heavy: EVQLVESGGGSVKPGGSLKLSCAASGFTFSDHYMYWVRQTPEKRLEWVAIISGGGSYTSYPDSMKGRFTISRDNAKNILHLQMSSLKSEDTAMYYCTRESNGKPGFAYWGQGTLVTVSAASTKGPSVFPLAPSSKSTSGGTAALGCLVKDYFPEPVTVSWNSGALTSGVHTFPAVLQSSGLYSLSSVVTVPSSSLGTQTYICNVNHKPSNTKVDKRVEPKSCDKTHTCPPCPAPEAAGGPSVFLFPPKPKDTLMISRTPEVTCVVVDVSHEDPEVKFNWYVDGVEVHNAKTKPREEQYNSTYRVVSVLTVLHQDWLNGKEYKCKVSNAALPAPISKTISKAKGQPREPQVYTLPPSREEMTKNQVSLTCLVKGFYPSDIAVEWESNGQPENNYKTTPPVLDSDGSFFLYSKLTVDKSRWQQGNVFSCSVLHEALHAHTTRKELSLSP light: not shown | binds | no binding (tested: 100 nM) | no binding (tested: 100 nM) | no binding (tested: 100 nM) |
